Values joined by “and” are separate entries in the source; they are usually repeats but may differ in a detail not shown here. Equal entries are not always repeated. Where two headings read alike, the source gives them in different places.

Assay [1] concerns the target FLAG::NOS-3 (S644E, T648E), phospho-mimetic (C. elegans). The experiment in a line: pull-down.
The target is the same in assay [2]. The experiment in a line: pull-down. The source holds these as a separate data set.

B1: FBF-1 (natural protein)
chain: MDQSKMRYTNQFRKTPQKPTSTEVGNHHTPAHSPMAQHETSMWNFNSLNPYFSMLNMNDGMNYARHQQNHIVTSRPPTPLTDLMSLRSFQSFPNVFMPVSRSRTSSFIQSDTDSSRLEPDDFSQNVRYCSTEIDRNNSSSKNDHLKYSRPALSRNSRSFTRSNNVLPTWSLDSNGEMRSRLSLSEVLDSGDLMKFAVDKTGCQFLEKAVKGSLTSYQKFQLFEQVIGRKDDFLKLSTNIFGNYFVQEIIGMSLTTYDDDNIKRQEKLKNFISSQMTDMCLDKFACRVIQSSLQNMDLSLACKLVQALPRDARLIAICVDQNANHVIQKVVAVIPLKNWEFIVDFVATPEHLRQICFDKYGCRVVQTIIEKLTADSINVDLTSAAQHLRERALQRLMTSVTNRCQELATNEYANYIIQHIVSNDDLAVYRECIIEKCLMRNLLSLSQEKFASHVVEKAFLHAPMELLAEMMDEIFDGYMPHPGTGKDALDIMMFHQFGNYVVQCMLTICCDAVSGRRQTKEGSYDHANSFQVWLKKLHSRVTKERHRLSRFSSGKKMIETLAHLRSTHPIYGLQSSGHESFKTDCFSTASEHDGLELEKNGIEEGNLRLMRTFSP
modifications: S^35 labeled methionine
On to B1, for which the fold reduction of FBF-1 binding compared to wild-type NOS-3 was 17 fold and > 20 fold in assay [1]; 14 fold in assay [2].

Source of the values: article PMC3098718.
